We go through 14 molecules from patent publication US20170306005A1 (NASCIENT, published 2017).

Assay [1] has as its target T1, mouse tenascin-C rCd4-His-FBG (rat; mouse, UniProt P05540 207-392, limits assumed).
T1 construct: domain: domains 3 and 4; C-terminal FBG fusion; biotinylated in the ELISA screen; also called Mu TNC; mouse TNC rCd4-His-FBG; not shown: 6His tag
T1 sequence (chain (part 1 of 2)): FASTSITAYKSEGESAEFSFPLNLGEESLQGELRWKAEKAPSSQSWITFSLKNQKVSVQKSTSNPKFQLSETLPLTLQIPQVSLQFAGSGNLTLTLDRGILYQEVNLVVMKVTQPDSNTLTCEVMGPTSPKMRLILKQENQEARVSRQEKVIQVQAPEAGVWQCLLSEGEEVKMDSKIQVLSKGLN
T1 sequence (chain (part 2 of 2)): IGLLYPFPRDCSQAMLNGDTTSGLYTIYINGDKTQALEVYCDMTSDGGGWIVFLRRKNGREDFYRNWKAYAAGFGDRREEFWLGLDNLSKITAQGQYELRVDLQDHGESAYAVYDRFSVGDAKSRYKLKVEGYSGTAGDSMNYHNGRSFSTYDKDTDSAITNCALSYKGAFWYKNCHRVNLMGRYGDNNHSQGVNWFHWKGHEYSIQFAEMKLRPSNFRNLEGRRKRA
Nature of the assay: anti-FLAG capture ELISA, scFv supernatant.

The target of assay [2] is T2, human tenascin-C rCd4-His-FBG (rat; human, UniProt P05540 207-392, limits assumed).
T2 construct: domain: domains 3 and 4; C-terminal FBG fusion; biotinylated in the ELISA and HTRF screens; also called Hu TNC; human TNC rCd4-His-FBG; not shown: 6His tag
T2 sequence (chain (part 1 of 2)): T1 sequence (chain (part 1 of 2))
T2 sequence (chain (part 2 of 2)): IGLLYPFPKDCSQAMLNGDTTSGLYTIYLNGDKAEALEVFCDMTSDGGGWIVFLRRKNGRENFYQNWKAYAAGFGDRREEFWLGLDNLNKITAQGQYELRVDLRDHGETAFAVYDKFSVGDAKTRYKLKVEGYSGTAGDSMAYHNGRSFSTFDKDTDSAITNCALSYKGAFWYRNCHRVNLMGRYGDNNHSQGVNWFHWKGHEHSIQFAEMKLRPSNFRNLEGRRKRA
Nature of the assay: HTRF competition; competitor d2-labelled B12 IgG. How it is done:
All samples and reagents were prepared in assay buffer (50 mM NaPO₄, 0.1% BSA, 0.4 M KF, pH 7.0) at 4× the stated concentration. 5 μl of each reagent was subsequently added to low volume 384-well assay plates (Greiner, 784075) to give a final reaction volume of 20 μl. IgG antibodies were labelled using the d2 labelling kit (CisBio, 62D2DPEA) as directed by the manufacturer. Streptavidin europium cryptate (CisBio, 610SAKLA, Lot#25C) was used at a final concentration of 1.8 ng active moiety (SA) per 20 μl reaction as recommended by the manufacturer. Biotinylated rCd4-His-FBG was prepared using EZ-link Sulfo-NHS-LC-Biotin reagent (Thermo Scientific, 21327) the extent of biotinylation was quantified using biotinylation fluorescence quantitation kit (Thermo Scientific, 46610). Where appropriate, supernatants containing scFv (prepared as described above for ELISA assays) were added to the 384-well assay plate at a final dilution of 1/20 (i.e. 1/5 dilution in assay buffer followed by addition of 5 μl diluted sample to the 20 μl FRET assay). […] Samples were incubated for approximately 1 h at room temperature and the FRET signal was determined using a BMG Pherastar instrument: excitation=320 nm; emission=620 nm and 665 nm; integration start time=60 μs; integration time=500 μs; 100 flashes per well. For competition assays containing culture supernatant, biotinylated rCd4-His-FBG antigen was pre-incubated with streptavidin europium cryptate for 45 min prior to addition of reagents to the assay plate. All FRET signals are presented as ΔR, where R=(E665/E620×104) and ΔR=(Rsample−Rbackground fluorescence).

For assay [3], the target named is T2, human tenascin-C rCd4-His-FBG. Nature of the assay: SPR off-rate screen, captured IgG4 supernatant, 25 C. As to the method:
The 31 scFv of interest were sub-cloned into a human IgG4 expression vector for generation of antibodies as human IgG4 with a hinge-stabilising mutation (S241P; Angal et al, 1993). […] Briefly, surface plasmon resonance (SPR) experiments were performed using a BIAcore T100 instrument and followed the protocol according to the Human antibody capture kit protocol (GE, BR-1008-39). For off-rate screening, 10,000 response units (RU) of anti-human Fc IgG (GE, BR-1008-39) was immobilised on flow-cells (FC1 and FC2) of a Series 5 CM5 dextran sensor chip (BR-1005-30) using EDC/NHS cross-linking chemistry according to the amine coupling kit protocol (GE, BR-1000-50). Culture supernatants containing expressed IgG4 were diluted 1:2 with 2×PBS-T and injected into FC2 (flowrate 5 μl/min, 60 s contact time) to enable antibody capture at 25° C. […] A fixed concentration of antigen (15 nM of human and mouse TNC rCd4-His-FBG and 100 nM of human TNR rCd4-His-FBG) was injected with a flow-path via FC 1 (reference flow cell) and FC 2 (antibody capture flow cell), with a flow rate of 30 μl/min, and the association and dissociation phases measured over 1 and 5 min time periods, respectively. Regeneration of the binding surface employed 3M MgCl₂ with 30 s contact time. Off rates were determined by reference cell subtraction and fitting the sensogram experimental data assuming a 1:1 interaction using BIAevaluation software (GE, BR-1005-97).

Assay [4] has the same target. Nature of the assay: SPR, captured purified IgG4, 37 C. How it is done: (§1) Detailed kinetic parameters were evaluated for the 9 prioritised IgG4 antibodies. Binding characteristics were determined for interaction with human, rat and dog TNC rCD4-His-FBG, and human TNR rCD4-His-FBG. Kinetic assays followed essentially the same protocols as for the off-rate determinations described above, with some modifications as follows. […] Purified anti-FBG IgG4 was diluted to a concentration of 3.5 nM in PBS, pH 7.4, 0.05% Tween-20 and injected into FC2 at a flow rate of 10 μl/min, 60 s contact time. […] Antigens were prepared by doubling dilution in PBS, pH 7.4, 0.05% Tween-20 (highest concentration 100 nM except mouse rCD4-His-FBG which was 7 nM). Assays were performed at 37° C. (30 μl/min, 120 s contact time; mouse rCD4-His-FBGFBG 10 μl/min, 60 s contact time), with both the flow cell and injection chamber equilibrated to this temperature. As before, kinetic parameters were determined by reference cell subtraction and fitting the sensogram experimental data assuming a 1:1 interaction using BIAevaluation software (GE, BR-1005-97).

Assay [5] has as its target T1, mouse tenascin-C rCd4-His-FBG. Nature of the assay: SPR, captured purified IgG4, 37 C. As to the method: as §1

Residue numbers refer to the chain shown, from its start. Numbers in names are those of the source.

B1: 161_01_F6 scFv (scFv, V domains shown, not shown: small tags and cut ends)
VH: EVRLVQSGAEVKKPGASVKVSCKVSGYTLTELSMHWVRQAPGKGLEWMGGFDPEDGETIYAQKFQGRVTMTEDTSTDTAYMELSSLRSEDTAVYYCATAQKENIANRHWGQGTLVTVSS
VL: DIQMTQSPASLPTSVGDRVTITCRASQYIQGFLNWYQQKPGKAPRLLIYAASTLQDGVPSRFSGSGYGTDFTLTISSLQPEDFATYYCQQSYSTPWTFGQGTKVEIK
notes: E. coli supernatant scFv; also called 160_01_F6
Regarding B1, in assay [1], the “fold improvement in binding over parent” value is at least 10 fold. Moreover, the “% inhibition of FRET signal” value in assay [2] was at least 90%.

B2: 165_13_D1 scFv (scFv, V domains shown, not shown: small tags and cut ends)
VH: QVQLVESGGGLVQPGRSLRLSCAASGFTFDDYAMHWVRQAPGKGLEWVSGISGSGGSTYYADSVKGRFTISRDNAKNSLYLQMNSLRAEDTALYYCAKGTRGEGDTFDIWGQGTMVTVSS
VL: B1 VL with S14P, R45K, A50D, T53N, Q55E, D56T, Y67S, W96Q, E105D
notes: E. coli supernatant scFv
Consider B2, for which, in assay [1], the “fold improvement in binding over parent” value was at least 4 fold. The “% inhibition of HTRF signal” value in assay [2] is at least 91%.

B3: 2A5 human IgG4 (antibody, V domains shown)
VH: B1 VH with N103T, I104Y, N106L, R107T, H108Y
VL: DIQMTQSPASLPTSVGDRVTITCRASQYIQGFLNWYQQKPGKAPRLLIYAASTLQDGVPSRFSGSGYGTDFTLTISSLQPEDFATYYCQQSYSTPWTFGQGTKVEIKR
notes: human IgG4 with hinge S241P; also called 2A5 parent
For B3, the off-rate (koff) is 0.0091 s⁻¹ in assay [3], 0.0323 s⁻¹ in assay [4] and 0.0106 s⁻¹ in assay [5]. Besides, the dissociation constant Kd in assay [4] worked out at 23.8 nM; in assay [5], 123 nM. Further, the results for the on-rate constant (kon) in assay [4] and in assay [5] were 1.36e+06 M⁻¹ s⁻¹ and 86800 M⁻¹ s⁻¹, respectively.

B4: 161_01_H10 scFv (scFv, V domains shown, not shown: small tags and cut ends)
VH: B1 VH with K101P, E102V, N103W, I104A, A105P, N106G, R107T, H108Y
VL: B1 VL
notes: E. coli supernatant scFv
Turning to B4, the “fold improvement in binding over parent” value in assay [1] was at least 10 fold. The “% inhibition of FRET signal” value in assay [2] was at least 90%.

B5: 165_13_B1 scFv (scFv, V domains shown, not shown: small tags and cut ends)
VH: B2 VH with G99V, T100M, R101S, G102S, E103M, G104E, T106A
VL: B1 VL with S14P, R45K, A50D, T53N, Q55E, D56T, Y67S, W96Q, E105D
notes: E. coli supernatant scFv
For B5, the “fold improvement in binding over parent” value in assay [1] was at least 4 fold. Also, in assay [2], the “% inhibition of HTRF signal” value was at least 91%.

B6: 162_02_F4 scFv (scFv, V domains shown, not shown: small tags and cut ends)
VH: B1 VH with N103T, I104Y, N106L, R107T, H108Y
VL: B1 VL with Q89M, Q90H, S91H, S93R, T94S
notes: E. coli supernatant scFv
On to B6, for which the “fold improvement in binding over parent” value in assay [1] was at least 10 fold. Moreover, the “% inhibition of FRET signal” value in assay [2] was at least 83%.

B7: 163_02_A12 scFv (scFv, V domains shown)
VH: B1 VH with N103T, I104Y, N106L, R107T, H108Y
VL: B1 VL with Q89L, Q90H, S91H, S93R, T94E
notes: E. coli supernatant scFv; not shown: scFv linker, domain order and the pSANG10 tags (FLAG/His)
For B7, in assay [1], the “fold improvement in binding over parent” value was at least 10 fold. Besides, the “% inhibition of FRET signal” value in assay [2] is at least 83%.

B8: 162_02_C6 scFv (scFv, V domains shown, not shown: small tags and cut ends)
VH: B1 VH with N103T, I104Y, N106L, R107T, H108Y
VL: B1 VL with Q90N, S91Q, S93A, T94G
notes: E. coli supernatant scFv
For B8, the “fold improvement in binding over parent” value in assay [1] is at least 10 fold. Also, in assay [2], the “% inhibition of FRET signal” value is at least 83%.

B9: 162_02_H5 scFv (scFv, V domains shown, not shown: small tags and cut ends)
VH: B1 VH with N103T, I104Y, N106L, R107T, H108Y
VL: B1 VL with Q90N, S91Q, S93T, T94G
notes: E. coli supernatant scFv
Take B9: in assay [1], the “fold improvement in binding over parent” value is at least 10 fold. Besides, the “% inhibition of FRET signal” value in assay [2] is at least 83%.

B10: 162_02_C2 scFv (scFv, V domains shown, not shown: small tags and cut ends)
VH: B1 VH with N103T, I104Y, N106L, R107T, H108Y
VL: B1 VL with Q89M, Q90H, S91H, S93R, T94A
notes: E. coli supernatant scFv
Turning to B10, in assay [1], the “fold improvement in binding over parent” value is at least 10 fold. Also, the “% inhibition of FRET signal” value in assay [2] is at least 83%.

B11: 163_02_D11 scFv (scFv, V domains shown)
VH: B1 VH with N103T, I104Y, N106L, R107T, H108Y
VL: B1 VL with Q89L, Q90H, S91H, S93K, T94S
notes: as for B7
As for B11, in assay [1], the “fold improvement in binding over parent” value is at least 10 fold. For the same molecule, the “% inhibition of FRET signal” value in assay [2] was at least 83%.

B12: 162_02_C1 scFv (scFv, V domains shown, not shown: small tags and cut ends)
VH: B1 VH with N103T, I104Y, N106L, R107T, H108Y
VL: B1 VL with Q89L, Q90H, S91H, S93R, T94A
notes: E. coli supernatant scFv
Turning to B12, in assay [1], the “fold improvement in binding over parent” value was at least 10 fold. The “% inhibition of FRET signal” value in assay [2] was at least 83%.

B13: 165_13_B6 scFv (scFv, V domains shown, not shown: small tags and cut ends)
VH: B2 VH with T100Q, R101K
VL: B1 VL with S14P, R45K, A50D, T53N, Q55E, D56T, Y67S, W96Q, E105D
notes: E. coli supernatant scFv
As to B13, the “fold improvement in binding over parent” value in assay [1] was at least 4 fold. Moreover, in assay [2], the “% inhibition of HTRF signal” value was at least 91%.

B14: 162_02_D3 scFv (scFv, V domains shown, not shown: small tags and cut ends)
VH: B1 VH with K101I, E102H, N103P, I104L, A105G, N106L, R107T, H108Y
VL: B1 VL
notes: E. coli supernatant scFv
For B14, in assay [1], the “fold improvement in binding over parent” value was at least 10 fold. Moreover, the “% inhibition of FRET signal” value in assay [2] is at least 90%.
